Usually Km stands for the substrate concentration at which the rate is half of its maximum. As a reminder, the Vmax is the rate approached at saturating substrate. By kcat/Km is commonly meant the turnover number divided by the Michaelis constant. In general, kcat refers to the maximal rate divided by the concentration of active sites.

The values that follow come from publication PMC3792999, “Identification and Characterization of a Cold-Active Phthalate Esters Hydrolase by Screening a Metagenomic Library Derived from Biofilms of a Wastewater Treatment Plant” (PLoS ONE, 2013).

Common to all, as to assay: purified protein
For data set [1], the system named is CCCCOC(=O)c1ccccc1C(=O)OCCCC.
Data set [2] deals with CCCOC(=O)c1ccccc1C(=O)OCCC. To be noted: pH 7.5; 10.0 °C.
Data set [3] deals with CCCCCOC(=O)c1ccccc1C(=O)OCCCCC. To be noted: pH 7.5; 10.0 °C.
Where [4] appears, read: 10 mM sodium phosphate pH 7.5, 10°C.

Take DphB (uncultured bacterium): in data set [1] (pH 7.5, 10.0 °C), the Km was determined as 561 ± 16 µM, the Vmax came to 40.7 µmol/min/mg and the kcat/Km turned out to be 70000 ± 2000 M⁻¹ s⁻¹. In addition, in data set [2], the Km was found to be 271 ± 12 µM, the Vmax stood at 46.4 µmol/min/mg and the kcat/Km stood at 166000 ± 5000 M⁻¹ s⁻¹. For the same substance, in data set [3], the Michaelis-Menten constant (Km) was 378 ± 18 µM, the Vmax was 45.9 µmol/min/mg and the kcat/Km stood at 118000 ± 4000 M⁻¹ s⁻¹.

Consider DphB (uncultured bacterium; D255A), for which, in data set [1] (setting [4]), the Km is 20300 ± 1170 µM and the turnover number (kcat) was 6.95 ± 1.42 s⁻¹.
